The nature of this data set: Dynamic light scattering (DLS) particle size in aqueous environment. Format: physicochemical. The text has this: In this example, it was hypothesized that binding affinity between β-CD and Ad-RGD would induce the well-controlled guest molecule amount through the Ad-RGDs inserted at different amounts with one another. First of all, β-CD PPZ and β-CD PPZ+Ad-RGD gave different results from measurement of dynamic light scattering (DLS). […] As Ad-RGDs were included in β-CD PPZ, the practical size of aqueous particles of β-CD PPZ+Ad-RGD was increased.
Further, to identify whether Ad-peptides were stoichiometrically and accurately inserted into the host molecules, dynamic light scattering (DLS) measurement was performed by mixing host molecules and guest molecules such that the ratio of host molecule: guest molecule was 1:1, 1:1.2, and 0:1. […] In this DLS result of the conjugate in which the ratio of host molecule:guest molecule was 1:1, any peaks involved in guest molecules alone were not shown (C of FIG. 17). It means that there were no guest molecules separated from β-CD PPZ. […] This means that all of the Ad-peptides were incorporated into the conjugates of β-CD PPZ and Ad-peptide (host molecule:guest molecule=1:1) in the aqueous environment. On the other hand, it was confirmed that when Ad-peptides was excessively mixed with β-CD PPZ (host molecule: guest molecule=1:1.2), the surplus Ad-peptides formed their own other peaks analogous to those of Ad-TGF and Ad-HAV alone (FIG. 18). […]

Ends that are not written are not given here. PEG = not defined here

For “adamantane-PEG-CLRAHAVDIN ({adamantane-PEG}-CLRAHAVDIN; not fully specified; reading uncertain) [Ad-HAV, N-cadherin mimic peptide linked to adamantane via PEG]”, the average particle size is 460.78±49.53 nm.
The result for “adamantane-PEG-CESPLKRQ ({adamantane-PEG}-CESPLKRQ; reading uncertain) [Ad-TGF, TGF-β1 mimic peptide linked to adamantane via PEG]” reads 353.63±31.71 nm.

The values are drawn from patent US20250163223A1, “HYDROGEL INCLUSION COMPLEX INCLUDING PHYSIOLOGICALLY ACTIVE MATERIAL BOUND TO THERMOSENSITIVE POLY(PHOSPHAZENE) BY HOST-GUEST INTERACTION USING BETA-CYCLODEXTRIN AND USE THEREOF” (KOREA INSTITUTE OF SCIENCE AND TECHNOLOGY, priority 2019, published 2025).
